Biological target: Mdb1 (UniProt O14079)
Experiment: biotin-peptide streptavidin pull-down, Coomassie stain
Conditions: reference: unphosphorylated H2A peptide; sites S129

## H2A.1 C-terminal 13 residues, 120-132 (from UniProt P04909) pS129 (γH2A) peptide
  binding against the reference: gained

From publication PMC4013092
